PMC4971492, “Structural basis for misregulation of kinesin KIF21A autoinhibition by CFEOM1 disease mutations” (Scientific Reports, 2016)

Molecular target: the molecule itself
Experiment: cross-linking; cysteine (disulfide) cross-linking in COS-7 lysates, 1 h room temperature, SDS-PAGE under reducing and non-reducing conditions, anti-GFP Western blot

B1: GFP-labelled CLIP-115 (natural protein)
chain: not shown
notes: CLIP-115 (CAP-Gly domain-containing linker protein 2); Species surmised as rat; source: COS-7, transfected, in lysate; not shown: GFP (monomeric), N-terminal, kept
stoichiometry N: 2
